Laboratory results reported in the supplement of paper PMC5998384.

Experiments:
HeLa Kyoto [1] = experiment: solubility in G1/S (NP-40 vs SDS abundance) (log2 ratio); higher = more soluble; conditions: cell cycle stage: G1/S
HeLa Kyoto [2] = experiment: melting temperature (median over replicates), in situ; higher = more thermally stable
HeLa Kyoto [3] = experiment: thermal stability score vs G1/S (z-score of summed log2 fold changes over temperatures); higher = more thermally stable than in G1/S
HeLa Kyoto [4] = experiment: solubility change mitosis vs G1/S (difference of NP-40 vs SDS log2 ratios) (log2 ratio difference); higher = more soluble in mitosis
[5] = cell cycle stage: early G1 (4.5 h after nocodazole release)
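For melting temperature (median over replicates), in situ in this document: HeLa Kyoto cells synchronized by double thymidine or nocodazole block, proteins quantified by TMT10plex mass spectrometry, three independent biological replicates.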
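For solubility change mitosis vs G1/S (difference of NP-40 vs SDS log2 ratios) in this document: synchronized HeLa Kyoto cells (double thymidine block for G1/S, nocodazole release for mitosis), protein amounts in NP-40 versus SDS lysates quantified by mass spectrometry, three biological replicates.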
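For solubility in G1/S (NP-40 vs SDS abundance) in this document: HeLa Kyoto cells arrested at G1/S by double thymidine block, proteins quantified by TMT10plex mass spectrometry in mild NP-40 versus SDS extracts, three biological replicates.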
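For thermal stability score vs G1/S (z-score of summed log2 fold changes over temperatures) in this document: synchronized HeLa Kyoto cells, proteins quantified by TMT10plex mass spectrometry, three biological replicates, mitosis taken 0.5 h after nocodazole release, G1/S directly after double thymidine block.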

Row | Sequence | solubility in G1/S (log2) (HeLa Kyoto [1]) | melting temperature (HeLa Kyoto [2]; cell cycle stage: G1/S) [°C] | melting temperature (HeLa Kyoto [2]; cell cycle stage: mitosis) [°C] | thermal stability score (HeLa Kyoto [3]; [5]) | thermal stability score (HeLa Kyoto [3]; cell cycle stage: mitosis) | solubility change mitosis (log2) (HeLa Kyoto [4])
1 | MSLWGLVSKMPPEKVQRLYVDFPQHLRHLLGDWLESQPWEFLVGSDAFCCNLASALLSDTVQHLQASVGEQGEGSTILQHISTLESIYQRDPLKLVATFRQILQGEKKAVMEQFRHLPMPFHWKQEELKFKTGLRRLQHRVGEIHLLREALQKGAEAGQVSLHSLIETPANGTGPSEALAMLLQETTGELEAAKALVLKRIQIWKRQQQLAGNGAPFEESLAPLQERCESLVDIYSQLQQEVGAAGGELEPKTRASLTGRLDEVLRTLVTSCFLVEKQPPQVLKTQTKFQAGVRFLLGLRFLGAPAKPPLVRADMVTEKQARELSVPQGPGAGAESTGEIINNTVPLENSIPGNCCSALFKNLLLKKIKRCERKGTESVTEEKCAVLFSASFTLGPGKLPIQLQALSLPLVVIVHGNQDNNAKATILWDNAFSEMDRVPFVVAERVPWEKMCETLNLKFMAEVGTNRGLLPEHFLFLAQKIFNDNSLSMEAFQHRSVSWSQFNKEILLGRGFTFWQWFDGVLDLTKRCLRSYWSDRLIIGFISKQYVTSLLLNEPDGTFLLRFSDSEIGGITIAHVIRGQDGSPQIENIQPFSAKDLSIRSLGDRIRDLAQLKNLYPKKPKDEAFRSHYKPEQMGKDGRGYVPATIKMTVERDQPLPTPELQMPTMVPSYDLGMAPDSSMSMQLGPDMVPQVYPPHSHSIPPYQGLSPEESVNVLSAFQEPHLQMPPSLGQMSLPFDQPHPQGLLPCQPQEHAVSSPDPLLCSDVTMVEDSCLSQPVTAFPQGTWIGEDIFPPLLPPTEQDLTKLLLEGQGESGGGSLGAQPLLQPSHYGQSGISMSHMDLRANPSW [STAT6] | 0.0515 | 48.4 | 49.6 | 0.798 | 2.24 | -0.111
2 | MSLYDDLGVETSDSKTEGWSKNFKLLQSQLQVKKAALTQAKSQRTKQSTVLAPVIDLKRGGSSDDRQIVDTPPHVAAGLKDPVPSGFSAGEVLIPLADEYDPMFPNDYEKVVKRQREERQRQRELERQKEIEEREKRRKDRHEASGFARRPDPDSDEDEDYERERRKRSMGGAAIAPPTSLVEKDKELPRDFPYEEDSRPRSQSSKAAIPPPVYEEQDRPRSPTGPSNSFLANMGGTVAHKIMQKYGFREGQGLGKHEQGLSTALSVEKTSKRGGKIIVGDATEKDASKKSDSNPLTEILKCPTKVVLLRNMVGAGEVDEDLEVETKEECEKYGKVGKCVIFEIPGAPDDEAVRIFLEFERVESAIKAVVDLNGRYFGGRVVKACFYNLDKFRVLDLAEQV [RBM17] | -0.32 | 48.3 | 49.3 | 0.948 | 4.62 | 0.318
3 | MSLYPSLEDLKVDKVIQAQTAFSANPANPAILSEASAPIPHDGNLYPRLYPELSQYMGLSLNEEEIRANVAVVSGAPLQGQLVARPSSINYMVAPVTGNDVGIRRAEIKQGIREVILCKDQDGKIGLRLKSIDNGIFVQLVQANSPASLVGLRFGDQVLQINGENCAGWSSDKAHKVLKQAFGEKITMTIRDRPFERTITMHKDSTGHVGFIFKNGKITSIVKDSSAARNGLLTEHNICEINGQNVIGLKDSQIADILSTSGTVVTITIMPAFIFEHIIKRMAPSIMKSLMDHTIPEV [SDCBP] | 0.00564 | 52.6 | 51.4 | -1.02 | -6.31 | -0.0317
4 | MSNKEGSGGFRKRKHDNFPHNQRREGKDVNSSSPVMLAFKSFQQELDARHDKYERLVKLSRDITVESKRTIFLLHRITSAPDMEDILTESEIKLDGVRQKIFQVAQELSGEDMHQFHRAITTGLQEYVEAVSFQHFIKTRSLISMDEINKQLIFTTEDNGKENKTPSSDAQDKQFGTWRLRVTPVDYLLGVADLTGELMRMCINSVGNGDIDTPFEVSQFLRQVYDGFSFIGNTGPYEVSKKLYTLKQSLAKVENACYALKVRGSEIPKHMLADVFSVKTEMIDQEEGIS [TSNAX] | 0.379 | 54.7 | 56.3 | -0.435 | -1.45 | -0.0987
5 | MSNMEKHLFNLKFAAKELSRSAKKCDKEEKAEKAKIKKAIQKGNMEVARIHAENAIRQKNQAVNFLRMSARVDAVAARVQTAVTMGKVTKSMAGVVKSMDATLKTMNLEKISALMDKFEHQFETLDVQTQQMEDTMSSTTTLTTPQNQVDMLLQEMADEAGLDLNMELPQGQTGSVGTSVASAEQDELSQRLARLRDQV [CHMP1B] | 0.304 | 51.8 | 52.2 | 0.0467 | -0.997 | 0.158
6 | MSNPFAHLAEPLDPVQPGKKFFNLNKLEDSRYGRLPFSIRVLLEAAIRNCDEFLVKKQDIENILHWNVTQHKNIEVPFKPARVILQDFTGVPAVVDFAAMRDAVKKLGGDPEKINPVCPADLVIDHSIQVDFNRRADSLQKNQDLEFERNRERFEFLKWGSQAFHNMRIIPPGSGIIHQVNLEYLARVVFDQDGYYYPDSLVGTDSHTTMIDGLGILGWGVGGIEAEAVMLGQPISMVLPQVIGYRLMGKPHPLVTSTDIVLTITKHLRQVGVVGKFVEFFGPGVAQLSIADRATIANMCPEYGATAAFFPVDEVSITYLVQTGRDEEKLKYIKKYLQAVGMFRDFNDPSQDPDFTQVVELDLKTVVPCCSGPKRPQDKVAVSDMKKDFESCLGAKQGFKGFQVAPEHHNDHKTFIYDNTEFTLAHGSVVIAAITSCTNTSNPSVMLGAGLLAKKAVDAGLNVMPYIKTSLSPGSGVVTYYLQESGVMPYLSQLGFDVVGYGCMTCIGNSGPLPEPVVEAITQGDLVAVGVLSGNRNFEGRVHPNTRANYLASPPLVIAYAIAGTIRIDFEKEPLGVNAKGQQVFLKDIWPTRDEIQAVERQYVIPGMFKEVYQKIETVNESWNALATPSDKLFFWNSKSTYIKSPPFFENLTLDLQPPKSIVDAYVLLNLGDSVTTDHISPAGNIARNSPAARYLTNRGLTPREFNSYGSRRGNDAVMARGTFANIRLLNRFLNKQAPQTIHLPSGEILDVFDAAERYQQAGLPLIVLAGKEYGAGSSRDWAAKGPFLLGIKAVLAESYERIHRSNLVGMGVIPLEYLPGENADALGLTGQERYTIIIPENLKPQMKVQVKLDTGKTFQAVMRFDTDVELTYFLNGGILNYMIRKMAK [ACO1] | -0.0477 | 54 | 53.1 | -1.5 | -0.466 | -0.178
7 | MSPARRCRGMRAAVAASVGLSEGPAGSRSGRLFRPPSPAPAAPGARLLRLPGSGAVQAASPERAGWTEALRAAVAELRAGAVVAVPTDTLYGLACAASCSAALRAVYRLKGRSEAKPLAVCLGRVADVYRYCRVRVPEGLLKDLLPGPVTLVMERSEELNKDLNPFTPLVGIRIPDHAFMQDLAQMFEGPLALTSANLSSQASSLNVEEFQDLWPQLSLVIDGGQIGDGQSPECRLGSTVVDLSVPGKFGIIRPGCALESTTAILQQKYGLLPSHASYL [YRDC] | 0.378 | 52.3 | 52.7 | 0.325 | 0.668 | -0.0312
8 | MSQAVQTNGTQPLSKTWELSLYELQRTPQEAITDGLEIVVSPRSLHSELMCPICLDMLKNTMTTKECLHRFCADCIITALRSGNKECPTCRKKLVSKRSLRPDPNFDALISKIYPSRDEYEAHQERVLARINKHNNQQALSHSIEEGLKIQAMNRLQRGKKQQIENGSGAEDNGDSSHCSNASTHSNQEAGPSNKRTKTSDDSGLELDNNNAAMAIDPVMDGASEIELVFRPHPTLMEKDDSAQTRYIKTSGNATVDHLSKYLAVRLALEELRSKGESNQMNLDTASEKQYTIYIATASGQFTVLNGSFSLELVSEKYWKVNKPMELYYAPTKEHK [RNF2] | -0.307 | 49.2 | 51.7 | 0.412 | 0.728 | 0.211
9 | MSQPGIPASGGAPASLQAQNGAALASGSPYTNGPVQNALLSSQESVSQGYNFQLPGSYPHPIPAKTLNPVSGQSNYGGSQGSGQTLNRPPVASNPVTPSLHSGPAPRMPLPASQNPATTPMPSSSFLPEANLPPPLNWQYNYPSTASQTNHCPRASSQPTVSGNTSLTTNHQYVSSGYPSLQNSFIKSGPSVPPLVNPPLPTTFQPGAPHGPPPAGGPPPVRALTPLTSSYRDVPQPLFNSAVNQEGITSNTNNGSMVVHSSYDEIEGGGLLATPQLTNKNPKMSRSVGYSYPSLPPGYQNTTPPGATGVPPSSLNYPSGPQAFTQTPLGANHLTTSMSGLSLQPEGLRVVNLLQERNMLPSTPLKPPVPNLHEDIQKLNCNPELFRCTLTSIPQTQALLNKAKLPLGLLLHPFKDLVQLPVVTSSTIVRCRSCRTYINPFVSFLDQRRWKCNLCYRVNDVPEEFLYNPLTRVYGEPHRRPEVQNATIEFMAPSEYMLRPPQPPVYLFVFDVSHNAVETGYLNSVCQSLLDNLDLLPGNTRTKIGFITFDSTIHFYGLQESLSQPQMLIVSDIEDVFIPMPENLLVNLNESKELVQDLLKTLPQMFTKTLETQSALGPALQAAFKLMSPTGGRMSVFQTQLPTLGVGALKPREEPNHRSSAKDIHMTPSTDFYKKLALDCSGQQVAVDLFLLSGQYSDLASLGCISRYSAGSVYYYPSYHHQHNPVQVQKLQKELQRYLTRKIGFEAVMRIRCTKGLSIHTFHGNFFVRSTDLLSLPNVNPDAGYAVQMSVEESLTDTQLVSFQSALLYTSSKGERRIRVHTLCLPVVSTLNDVFLGADVQAISGLLANMAVDRSMTASLSDARDALVNAVIDSLSAYRSSVLSNQQPGLMVPFSLRLFPLFVLALLKQKSFQTGTNARLDERIFAMCQVKNQPLVYLMLTTHPSLYRVDNLSDEGALNISDRTIPQPPILQLSVEKLSRDGAFLMDAGSVLMLWVGKNCTQNFLSQVLGVQNYASIPQPMTDLPELDTPESARIIAFISWLREQRPFFPILYVIRDESPMKANFLQNMIEDRTESALSYYEFLLHIQQQVNK [SEC24A] | 0.00033 | 49.5 | 49.5 | 0.052 | 0.892 | -0.0997
10 | MSQPPPPPPPLPPPPPPPEAPQTPSSLASAAASGGLLKRRDRRILSGSCPDPKCQARLFFPASGSVSIECTECGQRHEQQQLLGVEEVTDPDVVLHNLLRNALLGVTGAPKKNTELVKVMGLSNYHCKLLSPILARYGMDKQTGRAKLLRDMNQGELFDCALLGDRAFLIEPEHVNTVGYGKDRSGSLLYLHDTLEDIKRANKSQECLIPVHVDGDGHCLVHAVSRALVGRELFWHALRENLKQHFQQHLARYQALFHDFIDAAEWEDIINECDPLFVPPEGVPLGLRNIHIFGLANVLHRPIILLDSLSGMRSSGDYSATFLPGLIPAEKCTGKDGHLNKPICIAWSSSGRNHYIPLVGIKGAALPKLPMNLLPKAWGVPQDLIKKYIKLEEDGGCVIGGDRSLQDKYLLRLVAAMEEVFMDKHGIHPSLVADVHQYFYRRTGVIGVQPEEVTAAAKKAVMDNRLHKCLLCGALSELHVPPEWLAPGGKLYNLAKSTHGQLRTDKNYSFPLNNLVCSYDSVKDVLVPDYGMSNLTACNWCHGTSVRKVRGDGSIVYLDGDRTNSRSTGGKCGCGFKHFWDGKEYDNLPEAFPITLEWGGRVVRETVYWFQYESDSSLNSNVYDVAMKLVTKHFPGEFGSEILVQKVVHTILHQTAKKNPDDYTPVNIDGAHAQRVGDVQGQESESQLPTKIILTGQKTKTLHKEELNMSKTERTIQQNITEQASVMQKRKTEKLKQEQKGQPRTVSPSTIRDGPSSAPATPTKAPYSPTTSKEKKIRITTNDGRQSMVTLKSSTTFFELQESIAREFNIPPYLQCIRYGFPPKELMPPQAGMEKEPVPLQHGDRITIEILKSKAEGGQSAAAHSAHTVKQEDIAVTGKLSSKELQEQAEKEMYSLCLLATLMGEDVWSYAKGLPHMFQQGGVFYSIMKKTMGMADGKHCTFPHLPGKTFVYNASEDRLELCVDAAGHFPIGPDVEDLVKEAVSQVRAEATTRSRESSPSHGLLKLGSGGVVKKKSEQLHNVTAFQGKGHSLGTASGNPHLDPRARETSVVRKHNTGTDFSNSSTKTEPSVFTASSSNSELIRIAPGVVTMRDGRQLDPDLVEAQRKKLQEMVSSIQASMDRHLRDQSTEQSPSDLPQRKTEVVSSSAKSGSLQTGLPESFPLTGGTENLNTETTDGCVADALGAAFATRSKAQRGNSVEELEEMDSQDAEMTNTTEPMDHS [VCPIP1] | -0.111 | 48.3 | 48.8 | 1.21 | 1.02 | -0.0432
